Substrate in series [1]: CC(=O)N[C@H]1[C@H](O[C@H]2[C@H](O)[C@@H](NC(C)=O)[C@H](O[C@H]3[C@H](O)[C@@H](NC(C)=O)C(O)O[C@@H]3CO)O[C@@H]2CO)O[C@H](CO)[C@@H](O[C@@H]2O[C@H](CO)[C@@H](O[C@@H]3O[C@H](CO)[C@@H](O)[C@H](O)[C@H]3NC(C)=O)[C@H](O)[C@H]2NC(C)=O)[C@@H]1O
Nature of the series: Continuous spectrophotometric coupled-enzyme assay of NodST with βAST-IV PAPS regeneration. Conditions: other: coupled assay; pH 7.0. In kind it is biochemical, Rhizobium melioti.
Description: (§1) 100 mM bis-tris propane-HCl, pH 7.0, 5 mM 2-mercaptoethanol, 20 μM PAPS, 2 mM p-nitrophenyl sulfate, 3.0 mU NodST, 6.4 mU β-AST IV, and substrate are combined to a total volume of 500 μL. Because commercial PAPS contains significant amounts of PAP, the assay solution is incubated for 30 minutes at 20° C. prior to addition of substrate. The evolution of p-nitrophenol is monitored at 400 nm for 10 minutes.
(§2) All reactions were run in a total volume of 500 μL at 25° C. […] The amount of NodST added to each series of acceptor concentrations is varied over 1.2, 1.8, 3.0, and 4.2 mU. Because commercial PAPS contains significant amounts of PAP, the assay solution is incubated for 30 minutes at 20° C. prior to addition of substrate. The evolution of p-nitrophenol is monitored at 400 nm for 10 minutes.
(§3) 3.0 mU of NodST was used in each reaction. The Km for each series of PAP concentrations was calculated and the values were compared.

Substrate in series [2]: CC(=O)N[C@H]1[C@H](O[C@H]2[C@H](O)[C@@H](NC(C)=O)C(O)O[C@@H]2CO)O[C@H](CO)[C@@H](O[C@@H]2O[C@H](CO)[C@@H](O[C@@H]3O[C@H](CO)[C@@H](O)[C@H](O)[C@H]3NC(C)=O)[C@H](O)[C@H]2NC(C)=O)[C@@H]1O
The series is described as above. In kind it is biochemical, Rhizobium melioti. Conditions: other: apparent value, coupled assay, 20 μM PAPS, pH 7.0.
Description: as §1, §2, §3

Substrate in series [3]: CC(=O)N[C@H]1[C@H](O[C@H]2[C@H](O)[C@@H](NC(C)=O)C(O)O[C@@H]2CO)O[C@H](CO)[C@@H](O[C@@H]2O[C@H](CO)[C@@H](O)[C@H](O)[C@H]2NC(C)=O)[C@@H]1O
Nature of the series: purified protein, by the assay type. Conditions: pH 7.0.

Substrate in series [4]: Nc1ncnc2c1ncn2[C@@H]1O[C@H](COP(=O)(O)O)[C@@H](OP(=O)(O)O)[C@H]1O
Description: Reverse-physiological reaction of βAST-IV (PAPS from PAP and p-nitrophenyl sulfate). Conditions: other: 10 mM p-nitrophenyl sulfate, pH 7.0, 25° C., FIG. 6 legend. Type of series: biochemical, rat. On the procedure: All capillary zone electrophoresis (CZE) was run in 0.23 M borate in running buffer at pH 7.8. The column was pre-washed with H2 O (1 min), 1 N NaOH (1 min), and running buffer (2 min). The sample was pressure injected at 20 psi sec and electrophoresis was run with 20.0 kV (- to +) at 20° C. with detection at 260 nm. CZE of 1 mM standards PAPS, PAP, and 3'-adenosine monophosphate (3'-AMP) were run to determine retention times. The reverse-physiological reaction assay mixture, a 500 μL solution containing 50 mM bis-tris propane-HCl buffer at pH 7.0, 1 mM 2-mercaptoethanol, 10 mM p-nitrophenyl sulfate, and 1 mM PAP at 25° C., was subjected to CZE prior to addition of enzyme (t=0). 5 mU βAST-IV was added and CZE was repeated 30 minutes after initiation. The reaction was then diluted 100-fold and CZE was run again. A 2.0 μL internal standard of 10 mM PAPS was added, and CZE was repeated.
βAST-IV activity in the reverse-physiological reaction was determined at 25° C. with a total volume of 500 μL. The reverse-physiological assay above was used with varying PAP concentration (15.6, 31.3, 62.5, 125, 250, 500 μM). Measurement of initial velocity was conducted over 10 seconds at 400 nm, and an extinction coefficient of 1064 was used to calculate p-nitrophenol concentration at pH 7.0. […]

[5] abbreviates: other: apparent value, coupled assay, 20 μM PAPS.

B1: NodST (Sinorhizobium meliloti 1021) (protein)
chain: MTHSTLPPQPFAILAMPRTGTHYLEELVNEHPNVLSNGELLNTYDTNWPDKERLLLSDRELLERAFLRYPPHSDKKVTHVGCKINEPQFQERPSFFAELTAWPGLKVILVIRRNTLESLRSFVQARQTRQWLKFKSDSSAPPPPVMLPFATCEAYFKAADDFHARVVYAFDSSRIRLIEYERLLRDPVPCVATVLDFLGAPALQLADRGILRRQETRPLDQTVRNFHELRVHFANGPYARFFELAND
As for B1, the Km in series [1] was found to be 98.1 μμM; in series [2], 20.4 ± 3.6 µM; in series [3] (other: 20, 40 and 100 μM PAPS, all three within 10% variation, 3.0 mU NodST), 243 µM; in series [3] (setting [5]), 103 µM. Moreover, the kcat – broadly, the maximal rate divided by the concentration of active sites – amounted to 0.328 ± 0.013 s⁻¹ in series [2] and 0.458 s⁻¹ in series [3] (setting [5]).

B2: βAST-IV (Rattus norvegicus) (protein)
chain: MEFSRPPLVHVKGIPLIKYFAETIGPLQNFTAWPDDLLISTYPKSGTTWMSEILDMIYQGGKLEKCGRAPIYARVPFLEFKCPGVPSGLETLEETPAPRLLKTHLPLSLLPQSLLDQKVKVIYIARNAKDVVVSYYNFYNMAKLHPDPGTWDSFLENFMDGEVSYGSWYQHVKEWWELRHTHPVLYLFYEDIKENPKREIKKILEFLGRSLPEETVDSIVHHTSFKKMKENCMTNYTTIPTEIMDHNVSPFMRKGTTGDWKNTFTVAQNERFDAHYAKTMTDCDFKFRCEL
notes: made in house; host or cells: E. coli BL21(DE3)
On to B2, for which the Km in series [4] stood at 26.4 ± 3.4 µM.

(Values after patent US6255088A, “Enzymatic sulfation of biomolecules” (The Scripps Research Institute, priority 1999, dated 2001).)
